Assay results: patent US20230250176A1

What was measured:
[1] = target: purified recombinant human FcγRIIa H131 (human) (UniProt P12318); experiment: SPR (Biacore 8K), 25 C
[2] = target: purified recombinant human FcγRI (human) (UniProt P12314); experiment: SPR (Biacore 8K), 25 C

purified recombinant human FcγRIIa H131 (human), sequence (P12318 36-218 limits assumed): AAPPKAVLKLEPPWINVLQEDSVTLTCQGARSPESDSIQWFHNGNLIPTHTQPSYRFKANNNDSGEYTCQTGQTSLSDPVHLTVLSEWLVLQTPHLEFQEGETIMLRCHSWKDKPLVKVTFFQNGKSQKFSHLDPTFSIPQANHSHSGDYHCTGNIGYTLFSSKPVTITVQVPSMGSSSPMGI

| Kd [1] | Kd [2] | Substance |
| --- | --- | --- |
| 1100 nM |  | panitumumab (antibody) |
|  | 7.3 nM | cetuximab (antibody) |
